{
  "source": "paper PMC2887722",
  "about": "(Molecular cell, 2010)",
  "binders": {"B1": {"name": "hRpn13 (1-150) (domain or fragment, human, UniProt Q16186 1-150, looked up)", "chain": "MTTSGALFPSLVPGSRGASNKYLVEFRAGKMSLKGTTVTPDKRKGLVYIQQTDDSLIHFCWKDRTSGNVEDDLIIFPDDCEFKRVPQCPSGRVYVLKFKAGSKRLFFWMQEPKTDQDEEHCRKVNEYLNNPPMPGALGASGSSGHELSAL"}, "B2": {"name": "hRpn13 (253-407) (domain or fragment, human, UniProt Q16186 253-407, looked up)", "chain": "STAASPTQPIQLSDLQSILATMNVPAGPAGGQQVDLASVLTPEIMAPILANADVQERLLPYLPSGESLPQTADEIQNTLTSPQFQQALGMFSAALASGQLGPLMCQFGLPAEAVEAANKGDVEAFAKAMQNNAKPEQKEGDTKDKKDEEEDMSLD"}, "B3": {"name": "GST-tagged hRpn13 (253-407) wild-type (domain or fragment, human, UniProt Q16186 253-407, looked up)", "chain": "B2 chain"}, "B4": {"name": "GST-tagged hRpn13 (253-407) with alanine substitutions of Val286, Asp287, Glu295 and Ile296 (domain or fragment, human, UniProt Q16186 253-407, looked up)", "chain": "B2 chain with V34A, D35A, E43A, I44A"}, "B5": {"name": "GST-tagged hRpn2 (797-953) (domain or fragment, human, UniProt Q99460 797-953, looked up)", "chain": "MPKVQYKSNCKPSTFAYPAPLEVPKEKEKEKVSTAVLSITAKAKKKEKEKEKKEEEKMEVDEAEKKEEKEKKKEPEPNFQLLDNPARVMPAQLKVLTMPETCRYQPFKPLSIGGIIILKDTSEDIEELVEPVAAHGPKIEEEEQEPEPPEPFEYIDD"}, "B6": {"name": "full length human Rpn13 (hRpn13) (natural protein, UniProt Q16186 1-407, looked up)", "chain": "MTTSGALFPSLVPGSRGASNKYLVEFRAGKMSLKGTTVTPDKRKGLVYIQQTDDSLIHFCWKDRTSGNVEDDLIIFPDDCEFKRVPQCPSGRVYVLKFKAGSKRLFFWMQEPKTDQDEEHCRKVNEYLNNPPMPGALGASGSSGHELSALGGEGGLQSLLGNMSHSQLMQLIGPAGLGGLGGLGALTGPGLASLLGSSGPPGSSSSSSSRSQSAAVTPSSTTSSTRATPAPSAPAAASATSPSPAPSSGNGASTAASPTQPIQLSDLQSILATMNVPAGPAGGQQVDLASVLTPEIMAPILANADVQERLLPYLPSGESLPQTADEIQNTLTSPQFQQALGMFSAALASGQLGPLMCQFGLPAEAVEAANKGDVEAFAKAMQNNAKPEQKEGDTKDKKDEEEDMSLD"}},
  "key": {"[1]": {"target": "T1, hRpn2 (797-953) (human, UniProt Q99460 797-953)", "T1 sequence (looked up)": "B5 chain", "assay": "NMR titration"}, "[2]": {"target": "T2, His-tagged Uch37 (UniProt Q9Y5K5 1-329)", "T2 sequence (looked up)": "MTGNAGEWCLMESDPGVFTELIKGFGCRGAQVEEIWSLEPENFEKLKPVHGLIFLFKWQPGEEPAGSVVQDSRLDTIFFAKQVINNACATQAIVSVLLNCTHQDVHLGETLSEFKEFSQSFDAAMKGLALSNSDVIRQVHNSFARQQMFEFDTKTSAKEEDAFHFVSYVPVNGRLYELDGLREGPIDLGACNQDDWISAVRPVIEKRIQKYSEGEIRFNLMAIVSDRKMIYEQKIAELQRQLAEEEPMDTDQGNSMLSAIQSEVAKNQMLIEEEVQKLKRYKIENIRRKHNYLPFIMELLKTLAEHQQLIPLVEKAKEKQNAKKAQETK", "assay": "NMR intermolecular NOEs"}, "[3]": {"target": "T2, His-tagged Uch37", "assay": "pull-down"}, "[4]": {"target": "B6", "assay": "pull-down"}, "[5]": {"target": "ubiquitin (UniProt P0CG48 1-76)", "assay": "other fluorescence titration"}},
  "note": "Substitutions are numbered along the chain they refer to.",
  "data": [
    {"binder": "B1", "values": [
      {"measurement": "binding result", "setting": "[1]", "value": "binds"}
    ]},
    {"binder": "B2", "values": [
      {"measurement": "binding result", "setting": "[2]", "value": "binds"}
    ]},
    {"binder": "B3", "values": [
      {"measurement": "binding result", "setting": "[3]", "value": "binds"}
    ]},
    {"binder": "B4", "values": [
      {"measurement": "binding result", "setting": "[3]", "value": "binds"}
    ]},
    {"binder": "B5", "values": [
      {"measurement": "binding result", "setting": "[4]", "value": "binds"}
    ]},
    {"binder": "B6", "values": [
      {"measurement": "Kd", "setting": "[5]", "value": "8 ± 0.5", "unit": "µM"}
    ]}
  ]
}
